According to the MegaScale stability set (Tsuboyama et al. 2023):

B1: HEEH_KT_rd6_3632 (parent)
chain: DAEELIELVERALKEGREIILLGVRITSEEAGKWFIEWIRRFL

Variants of: B1
Assay: folding stability dG (cDNA display proteolysis); higher = more stable
Settings: PBS, room temperature

First: DAEELIELVERAIKEGREIILLGVRITSEEAGKWFIEWIRRFL [L13I]
Second: DAEELIELVERATKEGREIILLGVRITSEEAGKWFIEWIRRFL [L13T]
The “folding stability dG” value of the first is higher: 3.87 kcal/mol for the first, 3.25 kcal/mol for the second.

Going from DAEELIELVERANKEGREIILLGVRITSEEAGKWFIEWIRRFL [L13N] to DAEELIELVERALKEGREIILLGVRITSEEEGKWFIEWIRRFL [A31E], the “folding stability dG” value rises from 2.88 kcal/mol to 4.2 kcal/mol.

Going from DAEELIELVERALKEGREIILLGVRITSEEIGKWFIEWIRRFL [A31I] to DAEELIELVERALKEGREIILLGVRITSEEDGKWFIEWIRRFL [A31D], the “folding stability dG” value falls from 4.34 kcal/mol to 3.88 kcal/mol.

First: DAEELIELVERALKEGREIILLGVRITSEEVGKWFIEWIRRFL [A31V]
Second: DAEELIELVERALKEGREIILLGVRITSEESGKWFIEWIRRFL [A31S]
The “folding stability dG” value of the first is higher: 4.27 kcal/mol for the first, 3.65 kcal/mol for the second.

Compared with DAEELIELVERALKEGREIILLGVRITSEEPGKWFIEWIRRFL [A31P], DAEELIELVERALKEGREIILLGVRITSEEAPKWFIEWIRRFL [G32P] is higher in “folding stability dG” value: 3.15 kcal/mol for the first, 3.39 kcal/mol for the second.

First: DAEELIELVERALKEGREIILLGVRITSGEAGKWFIEWIRRFL [E29G]
Second: DAEELIELVERALKEGREIILLGVRITSAEAGKWFIEWIRRFL [E29A]
The “folding stability dG” value of the first is lower: 3.63 kcal/mol for the first, 3.89 kcal/mol for the second.

Compared with DAEELIELVERALKEGREIILLGVRITSEMAGKWFIEWIRRFL [E30M], DAEEWIELVERALKEGREIILLGVRITSEEAGKWFIEWIRRFL [L5W] is lower in “folding stability dG” value: 3.86 kcal/mol for the first, 3.67 kcal/mol for the second.

First: DAEESIELVERALKEGREIILLGVRITSEEAGKWFIEWIRRFL [L5S]
Second: DAEELIEWVERALKEGREIILLGVRITSEEAGKWFIEWIRRFL [L8W]
The “folding stability dG” value of the first is lower: 2.85 kcal/mol for the first, 3.7 kcal/mol for the second.

Going from DAEELIELVEKALKEGREIILLGVRITSEEAGKWFIEWIRRFL [R11K] to DAEELIELVERALKEGREIILLGKRITSEEAGKWFIEWIRRFL [V24K], the “folding stability dG” value falls from 3.65 kcal/mol to 3.05 kcal/mol.

First: DAEELIELVERALKEGREIILLGIRITSEEAGKWFIEWIRRFL [V24I]
Second: DAEELIELVERALKEGREIILLGGRITSEEAGKWFIEWIRRFL [V24G]
The “folding stability dG” value of the first is higher: 3.98 kcal/mol for the first, 3.22 kcal/mol for the second.

Going from DAEELIELVERALKEGREYILLGVRITSEEAGKWFIEWIRRFL [I19Y] to DAEELIELVERALKEGREHILLGVRITSEEAGKWFIEWIRRFL [I19H], the “folding stability dG” value falls from 3.23 kcal/mol to 2.98 kcal/mol.

Going from DAEELIPLVERALKEGREIILLGVRITSEEAGKWFIEWIRRFL [E7P] to DAEELIMLVERALKEGREIILLGVRITSEEAGKWFIEWIRRFL [E7M], the “folding stability dG” value rises from 3.1 kcal/mol to 3.82 kcal/mol.

Compared with DAEELIELVERALKEGREIILWGVRITSEEAGKWFIEWIRRFL [L22W], DAEELIELVKRALKEGREIILLGVRITSEEAGKWFIEWIRRFL [E10K] is lower in “folding stability dG” value: 4.08 kcal/mol for the first, 3.93 kcal/mol for the second.

First: DAEELIELVERALKEGREIILLGVRILSEEAGKWFIEWIRRFL [T27L]
Second: DAEELIELVERALKEKREIILLGVRITSEEAGKWFIEWIRRFL [G16K]
The “folding stability dG” value of the first is higher: 3.98 kcal/mol for the first, 3.53 kcal/mol for the second.

First: DAEELIELVERALKEVREIILLGVRITSEEAGKWFIEWIRRFL [G16V]
Second: DAEELIELVERALKEGREIILLGVRITSEEAGKWFIEWIRGFL [R41G]
The “folding stability dG” value of the first is higher: 3.74 kcal/mol for the first, 3.45 kcal/mol for the second.

First: DAEELIELVERALKEGREIILLGVRITSEEAGKWFIEWIRDFL [R41D]
Second: DAEELIELVERALKSGREIILLGVRITSEEAGKWFIEWIRRFL [E15S]
The “folding stability dG” value of the first is lower: 3.05 kcal/mol for the first, 3.73 kcal/mol for the second.

First: DAEELIELVERALKEGRHIILLGVRITSEEAGKWFIEWIRRFL [E18H]
Second: DAEELIELVERALKEGRLIILLGVRITSEEAGKWFIEWIRRFL [E18L]
The “folding stability dG” value of the first is higher: 3.85 kcal/mol for the first, 3.83 kcal/mol for the second.

Going from DAEELIELVERALKEGRFIILLGVRITSEEAGKWFIEWIRRFL [E18F] to DAEELIELVERALKEGRNIILLGVRITSEEAGKWFIEWIRRFL [E18N], the “folding stability dG” value falls from 3.87 kcal/mol to 3.69 kcal/mol.

First: DAEELIELVERALKEGRRIILLGVRITSEEAGKWFIEWIRRFL [E18R]
Second: DAECLIELVERALKEGREIILLGVRITSEEAGKWFIEWIRRFL [E4C]
The “folding stability dG” value of the first is lower: 3.79 kcal/mol for the first, 4.61 kcal/mol for the second.

Compared with DAEELIELVERALKEGREIILLGVRITSEEAGEWFIEWIRRFL [K33E], DAEELIELVERALKEGREIILLGVRITSEEAGHWFIEWIRRFL [K33H] is higher in “folding stability dG” value: 3.43 kcal/mol for the first, 3.51 kcal/mol for the second.

Compared with DAEELIELVERALKEGREIILLGVRITSEEAGAWFIEWIRRFL [K33A], DAEELIELVERALKEGREIILLGVRITSEEAGFWFIEWIRRFL [K33F] is lower in “folding stability dG” value: 3.77 kcal/mol for the first, 3.48 kcal/mol for the second.

First: DAEELIELVERMLKEGREIILLGVRITSEEAGKWFIEWIRRFL [A12M]
Second: DAEELIELVERDLKEGREIILLGVRITSEEAGKWFIEWIRRFL [A12D]
The “folding stability dG” value of the first is higher: 3.56 kcal/mol for the first, 2.84 kcal/mol for the second.

Going from DAEELIELVERKLKEGREIILLGVRITSEEAGKWFIEWIRRFL [A12K] to DAEELIELIERALKEGREIILLGVRITSEEAGKWFIEWIRRFL [V9I], the “folding stability dG” value rises from 3.08 kcal/mol to 3.79 kcal/mol.

First: DADELIELVERALKEGREIILLGVRITSEEAGKWFIEWIRRFL [E3D]
Second: DAEELIELVERALKEGQEIILLGVRITSEEAGKWFIEWIRRFL [R17Q]
The “folding stability dG” value of the first is higher: 3.85 kcal/mol for the first, 3.27 kcal/mol for the second.

Compared with DAEELIELVERALKEGNEIILLGVRITSEEAGKWFIEWIRRFL [R17N], DAEELIELVERALKEGREIILLGVRITSEEAGKWFIEKIRRFL [W38K] is lower in “folding stability dG” value: 3.3 kcal/mol for the first, 2.86 kcal/mol for the second.

DAEELIELVERALKEGREIILLGVRITSEEAGKWFIEVIRRFL [W38V] and DAEELIELVERALKEGREIILLGVRITSEEAGKWFIEQIRRFL [W38Q] are the same in “folding stability dG” value: 2.96 kcal/mol for the first, 2.96 kcal/mol for the second.

Compared with DAEELIELVERALKEGREIILLGVRITSEEAGKWFIEWIRRFE [L43E], DAEELIELVERALKEGREIILLGVRITSEEAGKWFMEWIRRFL [I36M] is higher in “folding stability dG” value: 2.91 kcal/mol for the first, 3.37 kcal/mol for the second.

Compared with DAEELIELVERALKEGREIRLLGVRITSEEAGKWFIEWIRRFL [I20R], DAEELIELVERALKEGREIILLEVRITSEEAGKWFIEWIRRFL [G23E] is higher in “folding stability dG” value: 3.13 kcal/mol for the first, 3.41 kcal/mol for the second.

Going from DAEELIELVERALKEGREIILLGVRITSEEAGKWFIEWILRFL [R40L] to DAEELIELVERALKEGREIILLGVRITSEEAGKWFIEWIFRFL [R40F], the “folding stability dG” value rises from 3.83 kcal/mol to 3.87 kcal/mol.

In the case of DAEELIELVERALKEGREIILLGVRITSEEAGKWFIEWITRFL [R40T], the “folding stability dG” value is reported as 3.46 kcal/mol.
